Results taken from patent US20190202901A1 (PIERRE FABRE MEDICAMENT, published 2019).
Values belong to the binder of their own block, whether it stands above or below them.

Experiments:
[1] = target: monkey IGF-1R on COS-7 cells (monkey (African green monkey)); experiment: cell-based or functional assay
[2] = target: T1, human IGF-1R, native, on cells (MCF-7, hIGF-1R transfected cells, tumor sections, primary normal cells) (human, UniProt P08069 31-1367); experiment: cell-based or functional assay
[3] = target: T1, human IGF-1R, native, on cells (MCF-7, …); experiment: cell-based or functional assay; remark: listed apart in the source
[4] = target: T2, soluble recombinant human IGF-1R hetero-tetramer with C-terminal 10-His tag (R&D Systems 305-GR-50) (human, UniProt P08069 31-736; P08069 741-932); experiment: SPR Biacore X100, His-captured soluble h-IGF-1R (about 600 RU), mean of 4 experiments
T2 construct: domain: alpha chain;domain: extracellular domain of the beta chain; Captured on an anti-His antibody chip; also called recombinant soluble human-IGF-1R; h-IGF-1R
Protocol: The dissociation constants (KD) of the binding of the antibodies on a recombinant soluble human-IGF-1R were defined by the ratio between the dissociation rate (koff) and the association rate (kₒₙ). The kinetic experiments were run on a Biacore X100 device using a CM5 sensor chip activated by a mouse anti-Tag His monoclobnal antibody. Around 12000 RU of antibodies are chemically grafted on the carboxymethyldextan matrix using the amine kit chemistry.
The experiments were carried out at 25° C. with a flow rate of 30 μl/min using the HBS-EP+ buffer (GE Healthcare) as the running and sample dilution buffer.
The single cycle kinetic scheme was used to define the kinetic parameters of the binding of the anti-IGF-1R antibodies on a soluble recombinant human IGF-1R captured by its two C-terminal 10 Histidine-tag. [0637] 1—A solution of a soluble recombinant version of the human IGF-1R hetero-tetramere: 2a chains and the extracellular domains of 2β chains expressed with an additional C-terminal 10-His tag (R&D Systems catalogue number 305-GR-50) was injected during one minute on the second flowcell at a concentration of 10 μg/ml. […] [0638] 2—After the capture phase, either the running buffer was injected 5 times (90 s each injection) or a growing range of 5 concentrations of one of the six antibodies was injected (90 s each injection) on both flowcells. At the end of the fifth injection the running buffer was passed during 5 minutes in order to define the dissociation rate. [0639] 3—The surface was then generated with an injection of a 10 mM Glycine, HCl pH 1.5 buffer during 45 s.

B1: m212A11 (murine 212A11, hybridoma CNCM I-4773) (antibody, V domains shown)
VH: QVQLQQSGPELVKPGASVKMSCKASGYTFTSYYIHWVKQRPGQGLEWIGWIWPGDGSTKYNEKFKGKTTLTADKSSSTAYMFLSSLTSEDSAVYFCASPMITPNYAMDYWGQGASVTVSS
VL: DIQMTQTTSSLSASLGDRVTISCRASQDINKYLNWYQQQPDGTVKLLIYYTSRLHSGVPSRFSGRGSGTDYSLTISNLEQEDIATYFCQQGSTLPYTFGGGTKLEIK
% internalisation (monkey IGF-1R) [1]: 73%
ΔMFI (monkey IGF-1R internalization) [1]: 83 MFI
decrease of IGF1-induced phosphorylation of hIGF-1R (MCF-7 cells) [2]: 80%

B3: c213B10 (antibody, human IgG1, kappa)
heavy: not shown
light: DIQMTQTTSSLSASLGDRVTISCRASQDISKYLNWYQQQPDGTIKLLIYYTSRLHSGVPSRFSGRGSGTDYSLTITNLEQEDIATYFCQQGSALPYTFGGGTKLEIKRTVAAPSVFIFPPSDEQLKSGTASVVCLLNNFYPREAKVQWKVDNALQSGNSQESVTEQDSKDSTYSLSSTLTLSKADYEKHKVYACEVTHQGLSSPVTKSFNRGEC
notes: also called chimeric 213B10
% internalisation (monkey IGF-1R) [1]: 73%
ΔMFI (monkey IGF-1R internalization) [1]: 101 MFI
ΔMFI (MCF-7, 10 µg/ml, 4 h) [3]: 369 MFI
phosphorylation of hIGF-1R, % of phosphorylation induced by IGF-1 (MCF-7 cells, 10 µg/ml) [2]: < 10%
Kd [4]: ~30 pM

B4: c212A11 (antibody, human IgG1, kappa, V domains shown)
VH: QVQLQQSGPELVKPGASVKMSCKASGYTFTSYYIHWVKQRPGQGLEWIGWIWPGDGSTKYNEKFKGKTTLTADKSSSTAYMFLSSLTSEDSAVYFCASPMITPNYAMDYWGQGASVTVSS
VL: DIQMTQTTSSLSASLGDRVTISCRASQDINKYLNWYQQQPDGTVKLLIYYTSRLHSGVPSRFSGRGSGTDYSLTISNLEQEDIATYFCQQGSTLPYTFGGGTKLEIKR
notes: also called chimeric 212A11
% internalisation (monkey IGF-1R) [1]: 75%
ΔMFI (monkey IGF-1R internalization) [1]: 98 MFI
ΔMFI (MCF-7, 10 µg/ml, 4 h) [3]: 322 MFI
phosphorylation of hIGF-1R, % of phosphorylation induced by IGF-1 (MCF-7 cells, 10 µg/ml) [2]: < 10%
Kd [4]: ~30 pM

B5: c214F8 (antibody, human IgG1, kappa)
heavy: not shown
light: DIQMTQTTSSLSASLGDRVTFSCRASQDISKYLNWYQQQPDGTIKLLIYYTSRLHSGVPSRFSGRGSGTDYSLTITNLEQEDIATYFCQQGSALPYTFGGGTKLEIKRTVAAPSVFIFPPSDEQLKSGTASVVCLLNNFYPREAKVQWKVDNALQSGNSQESVTEQDSKDSTYSLSSTLTLSKADYEKHKVYACEVTHQGLSSPVTKSFNRGEC
notes: also called chimeric 214F8
% internalisation (monkey IGF-1R) [1]: 72%
ΔMFI (monkey IGF-1R internalization) [1]: 98 MFI
ΔMFI (MCF-7, 10 µg/ml, 4 h) [3]: 403 MFI
phosphorylation of hIGF-1R, % of phosphorylation induced by IGF-1 (MCF-7 cells, 10 µg/ml) [2]: < 10%
Kd [4]: ~30 pM

Now from value to binder:

% internalisation (monkey IGF-1R) [1]: 71%
ΔMFI (monkey IGF-1R internalization) [1]: 80 MFI
decrease of IGF1-induced phosphorylation of hIGF-1R (MCF-7 cells) [2]: 80%
B2: m219D6 (murine 219D6, hybridoma CNCM I-4736) (antibody, V domains shown)
VH: QVQLQQSGPELVKPGDSVKMSCKASGYSFTSYFIHWVKQRPGQGLEWIGWIWPGDGSTKYNEKFKGKTTLTTDKSSSTAYMFLNSLTSEDSAVYFCASPMITPNYAMDYWGQGASVTVSS
VL: DIQMTQTTSSLSASLGDRVTISCRASQDISKYLNWYQQQPDGTVKLLIYYTSRLHSGVPSRFSGRGSGTDYSLTISNLEQEDIATYFCQQGSTLPYTFGGGTKLEIK

% internalisation (monkey IGF-1R) [1]: 74%
ΔMFI (monkey IGF-1R internalization) [1]: 102 MFI
ΔMFI (MCF-7, 10 µg/ml, 4 h) [3]: 353 MFI
phosphorylation of hIGF-1R, % of phosphorylation induced by IGF-1 (MCF-7 cells, 10 µg/ml) [2]: < 10%
Kd [4]: ~30 pM
B6: c219D6 (antibody, human IgG1, kappa, V domains shown)
VH: QVQLQQSGPELVKPGDSVKMSCKASGYSFTSYFIHWVKQRPGQGLEWIGWIWPGDGSTKYNEKFKGKTTLTTDKSSSTAYMFLNSLTSEDSAVYFCASPMITPNYAMDYWGQGASVTVSS
VL: DIQMTQTTSSLSASLGDRVTISCRASQDISKYLNWYQQQPDGTVKLLIYYTSRLHSGVPSRFSGRGSGTDYSLTISNLEQEDIATYFCQQGSTLPYTFGGGTKLEIKR
notes: also called chimeric 219D6
